In article PMC4547976:

Tests used:
myostatin (MSTN) = biological target: T1, myostatin (MSTN) (UniProt O14793)
T1 sequence: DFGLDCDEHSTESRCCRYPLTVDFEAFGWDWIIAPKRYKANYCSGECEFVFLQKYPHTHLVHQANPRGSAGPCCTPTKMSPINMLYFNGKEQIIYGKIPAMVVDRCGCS

GDF11 = biological target: T2, GDF11 (UniProt O95390)
T2 sequence: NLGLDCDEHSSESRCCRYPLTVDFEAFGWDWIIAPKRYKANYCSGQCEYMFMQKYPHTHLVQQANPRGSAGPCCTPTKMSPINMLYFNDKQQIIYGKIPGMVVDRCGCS

activin A = activin A (UniProt P08476)
Sequence of UniProt P08476 (P08476 311-426): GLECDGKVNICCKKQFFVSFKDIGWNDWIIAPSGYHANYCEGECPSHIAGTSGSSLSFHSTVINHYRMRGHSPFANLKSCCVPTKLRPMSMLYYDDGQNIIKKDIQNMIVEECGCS

Substance	IC50 of suppression of 1 nM MSTN activity, pGL3-(CAGA)12 luciferase reporter in HEK293 cells (180-0 nM FST-type protein) (myostatin (MSTN))	IC50 of suppression of 1 nM GDF11 activity, pGL3-(CAGA)12 luciferase reporter in HEK293 cells (180-0 nM FST-type protein) (GDF11)	IC50 of suppression of 1 nM activin A activity, pGL3-(CAGA)12 luciferase reporter in HEK293 cells (180-0 nM FST-type protein) (activin A)	IC50 of suppression of 1 nM MSTN activity, pGL3-(CAGA)12 luciferase reporter in HEK293 cells (myostatin (MSTN))	IC50 of suppression of 1 nM GDF11 activity, pGL3-(CAGA)12 luciferase reporter in HEK293 cells (GDF11)
MBP-NDFSD1 (chicken follistatin N-terminal domain and FSD1 fused to maltose-binding protein) (domain or fragment)	68.9 nM	57.9 nM	15.3 nM	–	–
MBP-NDFSD1/2 (chicken follistatin N-terminal domain, FSD1 and FSD2 fused to maltose-binding protein) (domain or fragment)	10.5 nM	3.56 nM	8.59 nM	–	–

Further lines, results first:

IC50 of suppression of 1 nM MSTN activity, pGL3-(CAGA)12 luciferase reporter in HEK293 cells (180-0 nM FST-type protein) (myostatin (MSTN))	IC50 of suppression of 1 nM GDF11 activity, pGL3-(CAGA)12 luciferase reporter in HEK293 cells (180-0 nM FST-type protein) (GDF11)	IC50 of suppression of 1 nM activin A activity, pGL3-(CAGA)12 luciferase reporter in HEK293 cells (180-0 nM FST-type protein) (activin A)	IC50 of suppression of 1 nM MSTN activity, pGL3-(CAGA)12 luciferase reporter in HEK293 cells (myostatin (MSTN))	IC50 of suppression of 1 nM GDF11 activity, pGL3-(CAGA)12 luciferase reporter in HEK293 cells (GDF11)	Substance
2.01 nM	1.64 nM	3.96 nM	–	–	MBP-FST288 (chicken follistatin FST288 fused to maltose-binding protein) (natural protein)
64 nM	26.2 nM	–	–	–	MBP-NDFSD1/1 (chicken follistatin N-terminal domain, FSD1 and a second FSD1 fused to maltose-binding protein) (domain or fragment)
–	–	–	4.81 nM	6.35 nM	MBP-FST315 (MBP-fused chicken follistatin FST315) (from UniProt Q90844 29-343) (natural protein)
